Laboratory results: US20050079613A1, “Downregulation of cell surface glycoproteins by a family of human ubiquitin ligases” (Oregon Health & Science University, priority 2002, published 2005)
“Also recorded” adds a separate entry of the source.

Assays:
HLA class I (MHC I) = test: Surface expression of endogenous MHC I on transfected HeLa cells, flow cytometry; type: cell-based, human; conditions: HeLa cells transfected with MARCH plasmid and GFP, 24 h post-transfection
Protocol: (§1) Flow cytometry. Cells were removed from tissue culture dishes with 0.05% Trypsin-EDTA (Invitrogen), washed with ice-cold PBS, and incubated with appropriate antibody for 30 minutes at 4° C. The cells were washed with ice-cold PBS and either resuspended in ice-cold PBS or incubated with PE-conjugated anti-mouse secondary antibody (DAKO) and washed again before analysis with a BD Biosciences (San Jose, Calif.) FACScalibur flow cytometer.
(§2) The ability to downregulate MHC I is common to KSHV-K3, KSHV-K5, MHV68-K3 and MV-M153R (Coscoy and Ganem, 2000, supra; Guerin et al., 2002, supra; Ishido et al., 2000b supra; Stevenson et al., 2000, supra). Additional substrates are ICAM-1 and B7.2 (but not B7.1) for KSHV-K5, as well as CD95 and CD4 for M153R (Coscoy and Ganem, 2001, supra; Guerin et al., 2002, supra; Ishido et al., 2000a, supra; Mansouri et al., 2003, supra). Since only low copy numbers were detected in HeLa cells for transcripts corresponding to each of the MARCH-proteins (FIG. 7C, and data not shown), HeLa cells were transfected with expression plasmids for MARCH-I, II, III, IV, V and VIII. Surface expression of selected glycoproteins was monitored upon transfection. The following known substrates for viral K3-family members were tested: Fas (CD95) and HLA class I (MHC I), both of which are endogenously expressed in HeLa cells, as well as transfected HLA-A2.1 or CD4. […] Surface expression of the respective markers was analyzed by flow cytometry. GFP was used to identify transfected cells.
With regards to whether MHC I downregulation by MARCH-IV was only observed at very high expression levels, since the viral immune evasion genes seem to be dedicated to MHC I downregulation, MHC I expression was compared at different expression levels of MARCH-IV or KSHV-K5 by taking advantage of the tetracycline-regulatable system to partially express either protein (Gossen, M. and H. Bujard, Proc. Natl. Acad. Sci. USA 89:5547-5551, 1992). Tet-off HeLa cells were transfected with either MARCH-IV or with KSHV-K5 in the presence of increasing amounts of tetracycline to shut off transcription. […]

ubiquitin = test: In vitro ubiquitination assay with GST-fused RING-CH (PHD) domains, E1, E2 panel, anti-ubiquitin immunoblot; type: biochemical; conditions: for ubiquitin ligase activity with UbCH5a: E2 = UbCH5a; for ubiquitin ligase activity with MmUbc6: E2 = murine MmUbc6
Protocol: Ubiquitination assay. UbCH2 and UbCH3 were obtained from Boston Biochem. (His)6-UbCH5a and GST fusion proteins were expressed in BL21-DE3 cells (Stratagene) and BL21 cells (Amersham), respectively, and purified as previously described (Boutell, C., S. Sadis and R. D. Everett, J. Virol. 76:841-850, 2002; Tiwari, S. and A. M. Weissman, J. Biol. Chem. 276:16193-16200, 2001). Purified E3 proteins were stored at 4° C., and E2 proteins were stored at −80° C. In vitro reaction mixtures (20 μl total) included: 50 nM rabbit E1 (Boston Biochem), 28 μM Ubiquitin, 5 mM ATP, 50 mM Tris-HCl pH 7.5, 50 mM NaCl, and 2 mM DTT. E2 enzymes were used at concentrations varying from 0.1 to 2.3 μM, and E3 concentrations ranged from 3 to 30 μM. After 90 minutes of incubation at 30° C., reactions were stopped by boiling in SDS sample buffer. Samples were electrophoresed through 12% polyacrylamide SDS gels and blotted using anti-ubiquitin mouse antibody, P4D1 (Santa Cruz Biotech).
In vitro reaction mixtures (20 μl total) included: 50 nM rabbit E1 (Boston Biochem), 28 μM Ubiquitin, 10 mM ATP, 50 mM Tris-HCl pH 7.5, 50 mM NaCl, and 2 mM DTT. E2 enzymes were used at concentrations varying from 0.7 to 2.3 μM, and E3 concentrations ranged from 3 to 25 μM. After 90 minutes of incubation at 30° C., reactions were stopped by addition of 4×reducing sample buffer. Samples were electrophoresed through 12% SDS gels and blotted using anti-ubiquitin mouse antibody (Santa Cruz Biotech).
To examine if the RING-CH domains of MARCH-I and MARCH-II would act as ubiquitin ligases in vitro, DNA fragments encoding the amino-terminal RING-CH-domain of both proteins were fused to Glutathione-S-transferase. The resulting constructs were sequence confirmed and expression of GST-MARCH protein verified by immunoblot. The GST-fusion protein was expressed and purified from E. coli cultures using Glutathione-columns. The ICP0-RING-domain was also purified, in parallel with the MARCH-I and MARCH-II constructs. A panel of E2 enzymes was either purchased from commercial sources or purified either by nickel-chelate chromatography or on glutathione columns. All E2-enzymes formed mercapto-ethanol-sensisitve complexes with ubiquitin thus showing ubiquitin conjugating activity. Purified ubiquitin and E1 was obtained from commercial sources.
To examine if the RING-CH domains of MARCH proteins act as ubiquitin ligases in vitro, a DNA fragment encoding the amino-terminal RING-CH-domains of MARCH-I, II, IV and VIII were fused to Glutathione-S-transferase (GST) for bacterial expression. The GST-fusion proteins were purified from E. coli cultures using Glutathione-sepharose-columns. Approximately thirty E2 proteins are found in the human genome compared to only one E1 enzyme (Pickart, 2001, supra). […] The specificity and selectivity of E3s with respect to E2s, however, is not well characterized. To cover a spectrum of E2s, a panel of E2 enzymes (Mansouri et al., 2003, supra) was acquired. The various E2 enzymes were incubated with or without the RING-CH-GST fusions in the presence of ubiquitin, ATP, E1. The formation of multiubiquitin-adducts was examined by immunoblotting with antibodies against ubiquitin.

transferrin receptor = test: Surface expression of transferrin receptor on transfected HeLa cells, flow cytometry; type: cell-based, human; conditions: HeLa cells transfected with MARCH plasmid and GFP, 24 h post-transfection
Protocol: as §1
Cells were transfected with appropriate plasmids as well as GFP to track transfection efficiency. […]
The ability to downregulate MHC I is common to KSHV-K3, KSHV-K5, MHV68-K3 and MV-M153R (Coscoy and Ganem, 2000, supra; Guerin et al., 2002, supra; Ishido et al., 2000b supra; Stevenson et al., 2000, supra). […] Since only low copy numbers were detected in HeLa cells for transcripts corresponding to each of the MARCH-proteins (FIG. 7C, and data not shown), HeLa cells were transfected with expression plasmids for MARCH-I, II, III, IV, V and VIII. Surface expression of selected glycoproteins was monitored upon transfection. […] Surface expression of the respective markers was analyzed by flow cytometry. […]

[1] = system: Fas (CD95), MHC I, HLA-A2.1, CD4, transferrin receptor, B7.1; test: Surface glycoprotein panel on transfected HeLa cells, flow cytometry; type: cell-based, human; conditions: HeLa cells transfected with MARCH plasmid
Protocol: as §1
The ability to downregulate MHC I is common to KSHV-K3, KSHV-K5, MHV68-K3 and MV-M153R (Coscoy and Ganem, 2000, supra; Guerin et al., 2002, supra; Ishido et al., 2000b supra; Stevenson et al., 2000, supra). Additional substrates are ICAM-1 and B7.2 (but not B7.1) for KSHV-K5, as well as CD95 and CD4 for M153R (Coscoy and Ganem, 2001, supra; Guerin et al., 2002, supra; Ishido et al., 2000a, supra; Mansouri et al., 2003, supra). Since only low copy numbers were detected in HeLa cells for transcripts corresponding to each of the MARCH-proteins (FIG. 7C, and data not shown), HeLa cells were transfected with expression plasmids for MARCH-I, II, III, IV, V and VIII. Surface expression of selected glycoproteins was monitored upon transfection. […] Surface expression of the respective markers was analyzed by flow cytometry. […]

HLA-A2.1 = test: Surface expression of co-transfected HLA-A2.1 constructs on HeLa cells, flow cytometry; type: cell-based, human
Protocol: as §1, §2
The most likely targets for ubiquitination on transmembrane glycoproteins are lysines in the cytoplasmic tail. To examine the role of lysines for MHC I and CD4 downregulation by MARCH-IV, a panel of constructs derived from the human MHC I molecule HLA-A2.1 and a lysine-deleted version of CD4 (Mansouri et al., 2003, supra) were used. In addition to MARCH-IV, MARCH-VIII was included in this analysis since it reduced HLA-A2.1 surface expression (FIG. 10A). […] To rule out the possibility that these mutations changed the target molecules in such a way that they are no longer recognized by MARCH-IV or VIII, a lysine residue into a HA-tag at the carboxyterminal end of HLA-A2.1 was introduced.

Molecule	surface expression of MHC I (HLA class I (MHC I))	ubiquitin ligase activity with UbCH5a (ubiquitin)	ubiquitin ligase activity with MmUbc6 (ubiquitin)	surface expression of transferrin receptor (TfR) (transferrin receptor)	other results
full-length MARCH-IV: MARCH-IV full length, which contains an N-terminal extension of 63 amino acids (protein) WYCYGLCAPAPQMLRHQGLLKCRCRMLFNDLKVFLLRRPPQAPLPMHGDPQPPGLAANNTLPALGAGGWAGWRGPREVVGREPPPVPPPPPLPPSSVEDDWGGPATEPPASLLSSASSDDFCKEKTEDRYSLGSSLDSGMRTPLCRICFQGPEQGELLSPCRCDGSVKCTHQPCLIKWISERGCWSCELCYYKYHVIAISTKNPLQWQAISLTVIEKVQVAAAILGSLFLIASISWLIWSTFSPSARWQRQDLLFQICYGMYGFMDVVCIGLIIHEGPSVYRIFKRWQAVNQQWKVLNYDKTKDLEDQKAGGRTNPRTSSSTQANIPSSEEETAGTPAPEQGPAQAAGHPSGPLSHHHCAYTILHILSHLRPHEQRSPPGSSRELVMRVTTV	downregulates MHC I				
MARCH-I: human membrane-associated RING-CH transmembrane ubiquitin ligase, SEQ ID NOS:39 and 54; expressed by transfection or as GST-RING-CH domain (protein, listed as Homo sapiens) MTSSHVCCNFLNMWKKSKISTMYYLNQDAKLSNLFLQASSPTTGTAPRSQSRLSVCPSTQDICRICHCEGDEESPLITPCRCTGTLRFVHQSCLHQWIKSSDTRCCELCKYDFIMETKLKPLRKWEKLQMTTSERRKIFCSVTFHVIAITCVVWSLYVLIDRTAEEIKQGNDNGVLEWPFWTKLVVVAIGFTGGLVFMYVQCKVYVQLWRRLKAYNRVIFVQNCPDTAKKLEKNFSCNVNTDIKDAVVVPVPQTGANSLPSAEGGPPEVVSV	no effect	more active	only active with MmUbc6	reduced the surface levels of transferring receptor; also recorded: Some reduction; also recorded: strong downregulation	formation of high molecular weight ubiquitinated complexes with the E2 enzymes tested (ubiquitin; GST-RING-CH fusion, E2 panel overall): less active with most E2 enzymes tested; surface expression of MHC I (HLA class I (MHC I); listed as MARCH I): No significant MHC I downregulation
ICPO: purified RING domain (amino acids 1-241) of herpes simplex ICP0 as GST fusion, positive control (protein, left off: a dimerising Fc or GST, purified RING domain (amino acids 1-241) of herpes simplex ICP0 as GST fusion, positive control) MEPRPGASTRRPEGRPQREPAPDVWVFPCDRDLPDSSDSEAETEVGGRGDADHHDDDSASEADSTDTELFETGLLGPQGVDGGAVSGGSPPREEDPGSCGGAPPREDGGSDEGDVCAVCTDEIAPHLRCDTFPCMHRFCIPCMKTWMQLRNTCPLCNAKLVYLIVGVTPSGSFSTIPIVNDPQTRMEAEEAVRAGTAVDFIWTGNQRFAPRYLTLGGHTVRALSPTHPEPTTDEDDDDLDD		promoted the formation of high-molecular weight complexes	some activity		
MARCH-III: human membrane-associated RING-CH ubiquitin ligase, SEQ ID NOS:43 and 56 (protein, listed as Homo sapiens) MTTSRCSHLPEVLPDCTSSAAPVVKTVEDCGSLVNGQPQYVMQVSAKDGQLLSTVVRTLATQSPFNDRPMCRICHEGSSQEDLLSPCECTGTLGTIHRSCLEHWLSSSNTSYCELCHFRFAVERKPRPLVEWLRNPGPQHEKRTLFGDMVCFLFITPLATISGWLCLRGAVDHLHFSSRLEAVGLIALTVALFTIYLFWTLVSFRYHCRLYNEWRRTNQRVILLIPKSVNVPSNQPSLLGLHSVKRNSKETVV					reduction in surface levels of any of the glycoproteins of the panel [1]: No reduction in surface levels
MARCH-VIII: human membrane-associated RING-CH ubiquitin ligase, SEQ ID NOS:53 and 61 (protein, listed as Homo sapiens) MSMPLHQISAIPSQDAISARVYRSKTKEKEREEQNEKTLGHFMSHSSNISKAGSPPSASAPAPVSSFSRTSITPSSQDICRICHCEGDDESPLITPCHCTGSLHFVHQACLQQWIKSSDTRCCELCKYEFIMETKLKPLRKWEKLQMTSSERRKIMCSVTFHVIAITCVVWSLYVLIDRTAEEIKQGQATGILEWPFWTKLVVVAIGFTGGLLFMYVQCKVYVQLWKRLKAYNRVIYVQNCPETSKKNIFEKSPLTEPNFENKHGHGICHSDTNSSCCTEPEDTGAEIIHV	reduced the surface expression of MHC I; also recorded: down regulated			almost complete elimination; also recorded: down regulated	downregulation of HLA-A2.1 with a lysine re-introduced into the C-terminal HA-tag (HLA-A2.1; HeLa cells): restored downregulation; surface expression of transfected HLA-A2.1 (HLA-A2.1; HeLa cells co-transfected with HLA-A2.1 and MARCH plasmid): reduced; downregulation of HLA-A2.1 with lysines removed from the tail (HLA-A2.1; HeLa cells, lysine-less HLA-A2.1 construct): resistant
